Values joined by “and” are separate entries in the source; they are usually repeats but may differ in a detail not shown here. Equal entries are not always repeated. Where two headings read alike, the source gives them in different places. Where a SMILES comes first, the peptide text is derived from it. [ ]: non-standard residue; d: D form. ξ: configuration not given here. Orn(CH(NH2)2) = NC(N)NCCC[C@H](N)C(=O)O; Ile(3ξ) = CCC(C)[C@H](N)C(=O)O; Thr(3ξ) = CC(O)[C@H](N)C(=O)O
Key:
[1] = biological target: Man5GlcNAc2 V1V2 glycopeptide, DMSO-oxidized disulfide-linked dimer (HIV-1 strain AE.CM244 (A244)); experiment: SPR kinetics, mAb captured on anti-IgG, DMSO-oxidized dimer injected; 1:1 Langmuir
[2] = biological target: Man3GlcNAc2 V1V2 glycopeptide, DMSO-oxidized disulfide-linked dimer (HIV-1 strain AE.CM244 (A244)); experiment: as above
[3] = biological target: Man5GlcNAc2 V1V2 glycopeptide, DMSO-oxidized disulfide-linked dimer (HIV-1 strain AE.CM244 (A244)); experiment: SPR kinetics, DMSO-oxidized dimer injected over captured mAb
[4] = biological target: Man3GlcNAc2 V1V2 (2), not deliberately oxidized (HIV-1 strain AE.CM244 (A244)); experiment: SPR, BIAcore 3000, PG9 captured on anti-human Ig Fc, glycopeptide as analyte; 1:1 Langmuir global fit
[5] = biological target: Man5GlcNAc2 V1V2 (1), not deliberately oxidized (HIV-1 strain AE.CM244 (A244)); experiment: as above
PG9 = conditions: NMR studies, Man5GlcNAc2-Asn alone; read-out: Kd for binding of PG9; cited from earlier work
[6] = biological target: Man5GlcNAc2 V1V2 glycopeptide, DMSO-oxidized disulfide-linked dimer (HIV-1 strain AE.CM244 (A244)); experiment: SPR kinetics, DMSO-oxidized dimer; reference CH01
[7] = biological target: Man5GlcNAc2 V1V2 glycopeptide, DMSO-oxidized disulfide-linked dimer (HIV-1 strain AE.CM244 (A244)); experiment: SPR kinetics, mAb captured on anti-IgG, DMSO-oxidized dimer injected; faster component of the dissociation phase
[8] = biological target: Man3GlcNAc2 V1V2 glycopeptide, DMSO-oxidized disulfide-linked dimer (HIV-1 strain AE.CM244 (A244)); experiment: as above
[9] = biological target: Man5GlcNAc2 V1V2 glycopeptide, DMSO-oxidized disulfide-linked dimer (HIV-1 strain AE.CM244 (A244)); experiment: SPR kinetics, DMSO-oxidized dimer; reference CH58 UCA
[10] = biological target: Man5GlcNAc2 V1V2 glycopeptide, DMSO-oxidized disulfide-linked dimer (HIV-1 strain AE.CM244 (A244)); experiment: SPR, DMSO-oxidized dimer 1-10 µg/mL over CH58 UCA captured on anti-IgG
[11] = biological target: Man3GlcNAc2 V1V2 glycopeptide, DMSO-oxidized disulfide-linked dimer (HIV-1 strain AE.CM244 (A244)); experiment: as above
CH58 UCA = experiment: SPR binding to unmutated ancestor of CH58; parameters: species or system human; conditions: Example 1
Method: (§1) Only the V1/V2 mAb CH58 bound to the glycan-deficient (aglycone) peptide (FIG. 9A). V1/V2 bNAbs ([…], CH01) bound weakly to V1/V2 GlcNAc2 peptide (FIG. 9B). In contrast, both bNAbs PG9 and CH01 bound avidly to the glycopeptides, V1/V2 Man3GlcNAc2 and V1/V2 Man5GlcNAc2 (FIGS. 9C and 9D). CH58 bound weakly to both glycopeptides. Each of the mAbs was captured on a human Fc specific IgG directly immobilized on a BIAcore CM5 sensor chip. Each of the V1/V2 peptides (3 min at 50 uL/min) was injected over the mAb captured surface and SPR binding was monitored on a BIAcore 3000 instrument. Non-specific binding of peptides was subtracted following measurement of signal on a surface with a control ant-RSV mab Synagis.
(§2) V1V2 glycopeptide binding Kd and rate constant measurements were carried out on BIAcore 3000 instruments as described earlier (Alam et al, Immunol. 178(7):4424-4435 (2007), Alam et al, J. Virol. 82(1):115-125 (2008)). Anti-human IgG Fc antibody (Sigma Chemicals) was immobilized on either a CM3 or CM5 (CM3 for kinetics and Kd determination) sensor chip (to minimize non-specific binding of peptides to chip matrix) to about 5000 Resonance Unit (RU) and each antibody was captured to about 100-200 RU on individual flow cells, in addition to one flow cell with the control Synagis mAb on the same sensor chip. Non-specific binding of V1V2 glycopeptide was double-referenced by substracting the control surface and blank buffer flow for each mAb-V1V2 glycopeptide binding interaction. […] SPR curve fitting analysis was performed using global fit of multiple titrations to the 1:1 Langmuir model. All data analysis was performed using the BIAevaluation 4.1 analysis software (GE Healthcare).

[12] = Aqueous solubility in phosphate buffer; format: physicochemical
V2 mAb CH59 = experiment: SPR binding of V1V2 peptides to captured V2 mAb CH59; parameters: species or system human; conditions: Example 6; peptide oxidized by solubilization in DMSO, 50 ug/mL
From the text: FIGS. 42A-42D. Selective binding of V1V2 BnAbs to mannose derivatized V1V2 glycopeptides but not to aglycone or GlcNAc2 V1V2 peptides. SPR curves showing preferential binding of PG9 and CH01 BnAbs to Man5—(FIG. 42A) and Man3—(FIG. 42B) GlcNAc2 V1V2 glycopeptides but not to GlcNAc2 (FIG. 42C) and aglycone (FIG. 42D) peptides. By contrast, V2 mAbs CH58 and CH59 bound to both aglycone ([…]) and GlcNAc2 (FIG. 42D) V1V2 peptides. Each V1V2 peptide was oxidized by solubilization in DMSO and injected over the indicated MAb at 50 ug/mL. Data shown is after reference subtraction of non-specific signal measured over the control mAb (Synagis). Binding data are representative of at least three experiments for Man5 and Man3 V1V2 peptides and two experiments for GlcNAc2 and aglycone V1V2.
V1V2 glycopeptide binding Kd and rate constant measurements were carried out on BIAcore 3000 instruments as described earlier (Alam et al, Immunol. 178(7):4424-4435 (2007), Alam et al, J. Virol. 82(1):115-125 (2008)). Anti-human IgG Fc antibody (Sigma Chemicals) was immobilized on either a CM3 or CM5 (CM3 for kinetics and Kd determination) sensor chip (to minimize non-specific binding of peptides to chip matrix) to about 5000 Resonance Unit (RU) and each antibody was captured to about 100-200 RU on individual flow cells, in addition to one flow cell with the control Synagis mAb on the same sensor chip. […]

CH01 UCA = experiment: SPR binding to unmutated ancestor of CH01; parameters: species or system human; conditions: for SPR binding to CH01 UA: Example 1
Method: as §1
(§3) The binding Kd (disassociation constant) of the UAs ranges from about 0.15 to 0.2 μM.
as §2

V2 mAb CH58 = experiment: SPR binding of V1V2 peptides/glycopeptides to captured V2 mAb CH58; parameters: species or system human
BnAb PG9 = format: binding, human
Method: V1V2 glycopeptide binding Kd and rate constant measurements were carried out on a BIAcore 3000 instrument using an anti-human Ig Fc capture assay as described earlier (Alam, S. M.; McAdams, M.; Boren, D.; Rak, M.; Scearce, R. M.; Gao, F.; Camacho, Z. T.; Gewirth, D.; Kelsoe, G.; Chen, P.; Haynes, B. F. J. Immunol. 2007, 178, 4424-4435.). Anti-human IgG Fc antibody (Sigma Chemicals) was immobilized on a CM5 sensor chip to about 10000 response units (RU), and each antibody was captured to about 300 RU. Anti-RSV Synagis mAb was captured on the same sensor chip as a control surface. Non-specific binding and drift in signal was double referenced by subtracting binding to the control surface and blank buffer flow for each of the peptide binding interactions. All curve-fitting analyses were performed using global fit of multiple titrations to the 1:1 Langmuir model. All data analysis was performed using the BIAevaluation 4.1 analysis software (GE Healthcare).

PG9 UCA = experiment: SPR binding to unmutated ancestor of PG9; parameters: species or system human; conditions: for SPR binding to PG9 UA: Example 1
Method: as §1, §3, §2

BnAb CH01 = experiment: SPR binding of V1V2 peptides/glycopeptides to captured mAb CH01; parameters: species or system human
697D = experiment: SPR binding to conformational V2 mAb 697D; conditions: Example 1
[13] = biological target: Man5GlcNAc2 V1V2 glycopeptide, DMSO-oxidized disulfide-linked dimer (HIV-1 strain AE.CM244 (A244)); experiment: SPR kinetics, DMSO-oxidized dimer; reference PG9
[14] = listed as V1V2 aglycone peptide
[15] = Example 6, peptide solubilized/oxidized in DMSO, 50 μg/mL

Molecule PG9 (antibody) has a Kd [1] of 0.0294 µM, a koff [1] of 0.000271 s⁻¹ and a kon [1] of 9200 M⁻¹ s⁻¹. It also gave a Kd [2] of 0.0371 µM, a koff [2] of 0.000147 s⁻¹ and a kon [2] of 3970 M⁻¹ s⁻¹. For the same molecule, the fold higher affinity than CH01 for the same peptide [3] was 2 fold, the Kd [4] was 0.119 µM and the Kd [5] was 0.311 µM.

For `CC(=O)N[C@@H]1[C@@H](O)[C@H](O[C@@H]2O[C@H](CO)[C@@H](O[C@@H]3O[C@H](CO[C@H]4O[C@H](CO[C@H]5O[C@H](CO)[C@@H](O)[C@H](O)[C@@H]5O)[C@@H](O)[C@H](O[C@H]5O[C@H](CO)[C@@H](O)[C@H](O)[C@@H]5O)[C@@H]4O)[C@@H](O)[C@H](O[C@H]4O[C@H](CO)[C@@H](O)[C@H](O)[C@@H]4O)[C@@H]3O)[C@H](O)[C@H]2NC(C)=O)[C@@H](CO)O[C@H]1NC(=O)C[C@H](N)C(=O)O` [Man5GlcNAc2-Asn], the Kd (PG9) is listed as 1000 to 2000 µM and 1600 µM.

In the case of CH01 UCA (antibody), the fold weaker binding than the mature BnAb [6] is reported as 3 fold, the kon [1] is reported as 8490 M⁻¹ s⁻¹ and the kon [2] is reported as 2060 M⁻¹ s⁻¹. It also gave a Kd [7] of 0.118 µM, a koff [7] of 0.000721 s⁻¹ and a Kd [8] of 1.78 µM. It also gave a koff [8] of 0.00363 s⁻¹ and a fold higher affinity than the UCA of CH58 [9] of 5 fold.

CH58 UCA (antibody) gave a Kd [10] of 0.5 µM and a Kd [11] of 0.6 µM.

For `CCC(C)[C@H](NC(=O)[C@@H]1CCCN1C(=O)[C@@H](NC(=O)[C@@H](NC(=O)[C@H](CC(=O)O)NC(=O)[C@H](CC(C)C)NC(=O)[C@H](CCCCN)NC(=O)[C@H](Cc1ccc(O)cc1)NC(=O)[C@H](Cc1ccccc1)NC(=O)[C@H](CC(C)C)NC(=O)[C@H](C)NC(=O)[C@H](Cc1cnc[nH]1)NC(=O)[C@@H](NC(=O)[C@H](CCCCN)NC(=O)[C@H](CCC(N)=O)NC(=O)[C@H](CCCCN)NC(=O)[C@H](CCCCN)NC(=O)[C@H](CC(=O)O)NC(=O)[C@H](CCCNC(=N)N)NC(=O)[C@H](CC(C)C)NC(=O)[C@H](CCC(=O)O)NC(=O)[C@@H](NC(=O)[C@@H](NC(=O)[C@H](CCSC)NC(=O)[C@H](CC(N)=O)NC(=O)[C@H](Cc1ccccc1)NC(=O)[C@H](CO)NC(=O)[C@H](CS)NC(=O)[C@H](CC(N)=O)NC(=O)[C@H](CCCNC(N)N)NC(=O)[C@@H](NC(=O)[C@H](CCC(=O)O)NC(=O)[C@H](CC(=O)O)NC(=O)[C@@H](NC(=O)[C@@H](NC(C)=O)C(C)CC)C(C)O)C(C)C)C(C)O)C(C)O)C(C)C)C(C)CC)C(C)C)C(N)=O` (stereo partly drawn) [Aglycone V1V2] (Ac-[Ile(3ξ)][Thr(3ξ)]DEV[Orn(CH(NH2)2)]NCSFNM[Thr(3ξ)][Thr(3ξ)]ELRDKKQKVHALFYKLD[Ile(3ξ)]VP[Ile(3ξ)]-NH2), the “SPR binding to CH58 UA” value (CH58 UCA) was “no binding”, the aqueous solubility [12] was “Poor aqueous solubility” and the “SPR binding to CH59” value (V2 mAb CH59) was “bound”. The “SPR binding to CH01 UA” value (CH01 UCA) was “not to the aglycone peptide”, the “SPR binding to CH01 UA” value (CH01 UCA; [14]) was “no binding” and the “SPR binding to CH01 UCA” value (CH01 UCA; Example 6) was “neither UCAs bound”. The “SPR binding to CH58” value (V2 mAb CH58; Example 1, antigen injected over captured mAb) was “bound”, the “SPR binding to CH58” value (V2 mAb CH58; Example 6, peptide solubilized/oxidized in DMSO, 1-50 μg/mL) was “retained” and the “SPR binding to PG9” value (BnAb PG9; Example 5, peptides 200 μg/mL, glycans 25 μg/mL over captured PG9) was “not detected”. The “SPR binding to PG9” value (BnAb PG9; Example 5, peptides 200 μg/mL, glycans 25 μg/mL over captured PG9, listed as V1V2 aglycone) was “minimal to no binding”, the “SPR binding to PG9” value (BnAb PG9; [15]) was “no binding” and the “SPR binding to PG9 UA” value (PG9 UCA) was “not to the aglycone peptide”. The “SPR binding to PG9 UA” value (PG9 UCA; [14]) was “no binding”, the “SPR binding to PG9 UCA” value (PG9 UCA; Example 6) was “neither UCAs bound” and the “SPR binding to CH01” value (BnAb CH01; Example 1, peptide injected over captured mAb) was “not to the aglycone peptide”. For the same molecule, the “SPR binding to CH01” value (BnAb CH01; [15]) was “no binding” and the “SPR binding to 697D” value (697D) was “not to the aglycone peptide”.

PG9 UCA (antibody) showed a kon [1] of 7410 M⁻¹ s⁻¹, a kon [2] of 5330 M⁻¹ s⁻¹ and a fold weaker binding than the mature BnAb [13] of 3 fold. For the same molecule, the Kd [7] was 0.0976 µM, the koff [7] was 0.000723 s⁻¹ and the Kd [8] was 1.06 µM. The koff [8] was 0.00566 s⁻¹ and the fold higher affinity than the UCA of CH58 [9] was 5 fold.

Source: patent publication US20150283227A1, “SYNTHETIC ENV PROTEINS” (priority 2012, published 2015)
